Results on three molecules are retold here after patent US20170015742A1 (published 2017).

Experiment [1] deals with T1, recombinant human PDGF-BB (human, UniProt P01127 82-190).
T1 construct: bought (CST cat#8912BF); also called hPDGF-BB; huPDGF-BB
Kind of experiment: competition ELISA: DVD-Ig titrated against biotinylated hPDGF-BB binding to coated hPDGF-Rbeta-Fc. As to the method: Plates were then washed four times with wash buffer (TBS, 0.05% Tween-20) and blocked with Superblock blocking buffer (Thermo Scientific, cat#37535). During the blocking step, supernatants, antibodies, benchmark compounds or DVD-Ig were diluted in assay diluent (10% Superblock containing 0.05% surfactamps) and an eight point titration of each sample molecule was performed. […] Following incubation, plates were washed four times with wash buffer. Detection reagent Streptavidin-polyHRP-40 (Fitzgerald, cat#65r-s104phrp) was diluted in assay diluent and added to plates (50 μL) for 45 minutes at 25° C. with shaking. Plates were washed four times with wash buffer and developed with the addition of Enhanced K-blue TMB substrate (Neogen, cat#308177). The reaction was stopped with 2N sulfuric acid (VWR, cat# BDH3500-1) and the absorbance was read at 450 nm-570 nm. […] Data was analyzed using Softmax Pro 4.8 software and IC₅₀ values calculated using a sigmoidal dose response (variable slope) fit in GraphPad Prism 5.
A general note: In an ELISA, binding on a coated surface is turned into a signal by an enzyme label.

Experiment [2] addresses T2, recombinant human VEGF165 (human, UniProt P15692 207-395).
T2 construct: also called hVEGF165; huVEGF-A165
Put plainly: competition ELISA: DVD-Ig titrated against biotinylated hVEGF165 binding to coated hVEGFR2-Fc. The procedure:
To identify molecules that could block the binding of hVEGF₁₆₅ to the hVEGF-R2 (KDR/Flk-1) receptor, a competition ELISA was performed. […] Plates were then washed four times with wash buffer (TBS, 0.05% Tween-20) and blocked with Superblock blocking buffer (Thermo Scientific, cat#37535). […] The pre-incubated sample/hVEGF₁₆₅ complex was added to the coated plate at 50 μL in duplicate and incubated for 30 minutes at 25° C. with shaking. Following incubation, plates were washed four times with wash buffer. Streptavidin-polyHRP-40 (Fitzgerald cal#65r-s104phrp) was diluted in assay diluent (10% Superblock containing 0.05% surfactamps) and added to plates (50 μL) for 45 minutes at 25° C. with shaking. Plates were washed four times with wash buffer and developed with the addition of Enhanced K-blue TMB substrate (Neogen cat#308177). The reaction was stopped with 2N sulfuric acid (VWR, cat# BDH3500-1) and the absorbance was read at 450 nm-570 nm. A decrease in observed optical density indicates the test molecule is blocking the hVEGF₁₆₅ binding to the hVEGF-R2-Fc. Data was analyzed using Softmax Pro 4.8 software and IC₅₀ values calculated using a sigmoidal dose response (variable slope) fit in GraphPad Prism 5.

For experiment [3], the target named is T2, recombinant human VEGF165. Kind of experiment: cell-based or functional assay.
Experiment [4] concerns the target T1, recombinant human PDGF-BB. Kind of experiment: cell-based or functional assay.
The target in experiment [5] is T3, cyno PDGF-B (PR-1575400) (cynomolgus monkey, UniProt P01127 82-190 (human entry), limits assumed).
T3 construct: Recombinant; also called cynomolgus monkey PDGF-BB; cynoPDGF-BB
T3 chain: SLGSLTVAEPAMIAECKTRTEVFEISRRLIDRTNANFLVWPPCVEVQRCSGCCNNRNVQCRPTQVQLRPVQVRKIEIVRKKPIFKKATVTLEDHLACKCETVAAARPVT
Kind of experiment: SPR (Biacore), binding protein captured by anti-human Fc, antigen injected. As to the method: (§1) Unreacted moieties on the biosensor surface were blocked with ethanolamine. For kinetic analysis, rate equations derived from the 1:1 Langmuir binding model were fitted simultaneously to multiple antigen injections (using global fit analysis) with the use of Scrubber 2 (BioLogic Software), Biacore Biaevaluation 4.0.1 software or Biacore T100 Evaluation software. Purified antibodies or DVD-Ig molecules were diluted in running buffer for capture across goat anti-human Fc reaction surfaces. Antibodies or DVD-Ig molecules to be captured as a ligand (1 μg/ml) were injected over reaction matrices at a flow rate of 10 μl/minute. During the assay, all measurements were referenced against the capture surface alone (i.e., with no captured antibody or DVD-Ig molecule). […] The equilibrium dissociation constant KD (M) of the reaction between antibodies and the target antigen was then calculated from the kinetic rate constants by the following formula: KD=Koff/Kₒₙ. Binding was recorded as a function of time and kinetic rate constants were calculated. In this assay, on-rates as fast as 10⁶M⁻¹s⁻¹ and off-rates as slow as 10⁻⁶ s⁻¹ could be measured.

For experiment [6], the target named is T4, mouse PDGF-B (PR-1577160) (mouse, UniProt P31240 82-190).
T4 construct: Recombinant; also called mouse PDGF-BB; mPDGF-BB
T4 sequence (P31240 82-190 limits assumed): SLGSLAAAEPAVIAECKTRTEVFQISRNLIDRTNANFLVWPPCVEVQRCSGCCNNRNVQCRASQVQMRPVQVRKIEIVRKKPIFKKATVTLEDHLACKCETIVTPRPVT
The experiment is described as above. The procedure:
as §1

Experiment [7] has as its target T5, human VEGF 111 (PR-1520687) (human, UniProt P15692-10 27-137).
T5 construct: also called hVEGF111
T5 sequence (looked up): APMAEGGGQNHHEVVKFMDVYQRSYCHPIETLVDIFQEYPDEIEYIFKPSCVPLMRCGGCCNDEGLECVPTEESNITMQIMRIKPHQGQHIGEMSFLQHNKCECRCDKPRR
The description is as above. As to the method:
as §1

In experiment [8] the target is T6, human VEGF 165 (PR-1350437) (human, UniProt P15692 207-395).
T6 construct: Purified recombinant protein; also called hVEGF165
The description is as above. As to the method:
as §1

For experiment [9], the target named is T7, human PDGF-B (PR-1373790) (human, UniProt P01127 82-190).
T7 construct: Soluble recombinant PDGF-BB homodimer; also called human PDGF-BB; hPDGF-BB
Described as above. As to the method: as §1

Experiment [10] concerns the target T8, human VEGF 121 (PR-1515941) (human, UniProt P15692 207-395).
T8 construct: Recombinant isoform; also called hVEGF121
T8 sequence: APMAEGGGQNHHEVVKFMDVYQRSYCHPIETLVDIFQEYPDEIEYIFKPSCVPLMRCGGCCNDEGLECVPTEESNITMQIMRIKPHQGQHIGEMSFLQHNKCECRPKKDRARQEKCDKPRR
Described as above. The procedure:
as §1

B1: 4G8.3-SL-9E8.4 (g) DVD-Ig (PR-1572105) (bispecific antibody, human IgG1, kappa, L234A L235A)
heavy: EVQLVQSGSELKKPGASVKVSCKASGYTFTNYGMYWVRQAPGQGLEWMGWINTETGKPTYADDFKGRFVFSLDTSVSTAYLQISSLKAEDTAVYYCARTNYYYRSYIFYFDYWGQGTMVTVSSASTKGPEVTLRESGPALVKPTQTLTLTCTFSGFSLSTYGMGVGWIRQPPGKALEWLANIWWDDDKYYNPSLKNRLTISKDTSKNQVVLTMTNMDPVDTATYYCARIESIGTTYSFDYWGQGTMVTVSSASTKGPSVFPLAPSSKSTSGGTAALGCLVKDYFPEPVTVSWNSGALTSGVHTFPAVLQSSGLYSLSSVVTVPSSSLGTQTYICNVNHKPSNTKVDKKVEPKSCDKTHTCPPCPAPEAAGGPSVFLFPPKPKDTLMISRTPEVTCVVVDVSHEDPEVKFNWYVDGVEVHNAKTKPREEQYNSTYRVVSVLTVLHQDWLNGKEYKCKVSNKALPAPIEKTISKAKGQPREPQVYTLPPSREEMTKNQVSLTCLVKGFYPSDIAVEWESNGQPENNYKTTPPVLDSDGSFFLYSKLTVDKSRWQQGNVFSCSVMHEALHNAYTQKSLSLSPGK
light: DTVLTQSPATLSLSPGERATLSCRASESVSTHMHWYQQKPGQAPRLLIYGASNLESGVPARFSGSGSGTDFTLTISSLEPEDFAVYFCQQSWNDPFTFGQGTKLEIKRTVAAPSVFIFPPEFVLTQSPGTLSLSPGERATLSCERSSGDIGDSYVSWYQQKPGQAPRLVIYADDQRPSGIPDRFSGSGSGTDFTLTISRLEPEDFAVYYCQSYDINIDIVFGGGTKVEIKRTVAAPSVFIFPPSDEQLKSGTASVVCLLNNFYPREAKVQWKVDNALQSGNSQESVTEQDSKDSTYSLSSTLTLSKADYEKHKVYACEVTHQGLSSPVTKSFNRGEC
notes: DVD-Ig, outer hBDB-4G8.3 (VEGF), inner hBDI-9E8.4 (PDGF); IgG1 L234A, L235A, H435A / kappa; also called DVD-Ig-3
In general, IC50 refers to the concentration at which inhibition is half-maximal. Take B1: the IC50 in experiment [1] is more than 5 nM; in experiment [2] it was 0.111 nM. For the same molecule, the “HMVEC-d hVEGF165 Potency IC50” value in [3] turned out to be 0.347 nM. Also, the “NIH-3T3 hPDGF-BB Potency IC50” value in experiment [4] stood at 0.29 nM.

B2: 4G8.3-GS(9)-9E8.4 (g) DVD-Ig (PR-1572102) (bispecific antibody, human IgG1, kappa, L234A L235A)
heavy: EVQLVQSGSELKKPGASVKVSCKASGYTFTNYGMYWVRQAPGQGLEWMGWINTETGKPTYADDFKGRFVFSLDTSVSTAYLQISSLKAEDTAVYYCARTNYYYRSYIFYFDYWGQGTMVTVSSGGGGSGGGGSEVTLRESGPALVKPTQTLTLTCTFSGFSLSTYGMGVGWIRQPPGKALEWLANIWWDDDKYYNPSLKNRLTISKDTSKNQVVLTMTNMDPVDTATYYCARIESIGTTYSFDYWGQGTMVTVSSASTKGPSVFPLAPSSKSTSGGTAALGCLVKDYFPEPVTVSWNSGALTSGVHTFPAVLQSSGLYSLSSVVTVPSSSLGTQTYICNVNHKPSNTKVDKKVEPKSCDKTHTCPPCPAPEAAGGPSVFLFPPKPKDTLMISRTPEVTCVVVDVSHEDPEVKFNWYVDGVEVHNAKTKPREEQYNSTYRVVSVLTVLHQDWLNGKEYKCKVSNKALPAPIEKTISKAKGQPREPQVYTLPPSREEMTKNQVSLTCLVKGFYPSDIAVEWESNGQPENNYKTTPPVLDSDGSFFLYSKLTVDKSRWQQGNVFSCSVMHEALHNAYTQKSLSLSPGK
light: DTVLTQSPATLSLSPGERATLSCRASESVSTHMHWYQQKPGQAPRLLIYGASNLESGVPARFSGSGSGTDFTLTISSLEPEDFAVYFCQQSWNDPFTFGQGTKLEIKRGGSGGGGSGEFVLTQSPGTLSLSPGERATLSCERSSGDIGDSYVSWYQQKPGQAPRLVIYADDQRPSGIPDRFSGSGSGTDFTLTISRLEPEDFAVYYCQSYDINIDIVFGGGTKVEIKRTVAAPSVFIFPPSDEQLKSGTASVVCLLNNFYPREAKVQWKVDNALQSGNSQESVTEQDSKDSTYSLSSTLTLSKADYEKHKVYACEVTHQGLSSPVTKSFNRGEC
notes: DVD-Ig, outer hBDB-4G8.3 (VEGF), inner hBDI-9E8.4 (PDGF); IgG1 L234A, L235A, H435A / kappa; also called 4G8.3-GS-9E8.4 (g); DVD-Ig-1
For the molecule B2, the IC50 was more than 5 nM in [1] and 0.157 nM in [2]. Further, the “HMVEC-d hVEGF165 Potency IC50” value in experiment [3] came to 0.417 nM. The “NIH-3T3 hPDGF-BB Potency IC50” value in [4] came out at 0.528 nM.

B3: 9E10.1-GS-33675 anti-VEGF/anti-PDGF DVD-Ig (PR-1610561) (bispecific antibody, human IgG1, kappa, L234A L235A)
heavy: EIQLVQSGSELKKPGASVKVSCKASGYTFTNYGMYWVKQAPGQGLEYMGWIDTETGRPTYADDFKGRFVFSLDTSVSTAYLQISSLKAEDTAVYFCARWSGDTTGIRGPWFAYWGQGTLVTVSSGGGGSGGGGSEVTLRESGPALVKPTQTLTLTCTFSGFSLSTYGMGVGWIRQPPGKALEWLANIWWDDDKYYNPSLKNRLTISKDTSKNQVVLTMTNMDPVDTATYYCARIESSGPKYSFDYWGQGTMVTVSSASTKGPSVFPLAPSSKSTSGGTAALGCLVKDYFPEPVTVSWNSGALTSGVHTFPAVLQSSGLYSLSSVVTVPSSSLGTQTYICNVNHKPSNTKVDKKVEPKSCDKTHTCPPCPAPEAAGGPSVFLFPPKPKDTLMISRTPEVTCVVVDVSHEDPEVKFNWYVDGVEVHNAKTKPREEQYNSTYRVVSVLTVLHQDWLNGKEYKCKVSNKALPAPIEKTISKAKGQPREPQVYTLPPSREEMTKNQVSLTCLVKGFYPSDIAVEWESNGQPENNYKTTPPVLDSDGSFFLYSKLTVDKSRWQQGNVFSCSVMHEALHNAYTQKSLSLSPGK
light: DIRMTQSPSSLSASVGDRVTIECLASEDIYSDLAWYQQKPGKSPKLLIYNANGLQNGVPSRFSGSGSGTDYSLTISSLQPEDVATYFCQQYNYFPGTFGQGTKLEIKGGSGGGGSGGEIVLTQSPGTLSLSPGERATLSCRASSGSIWYSFVSWYQQKPGQAPRLLIYADDQRASGIPDRFSGSGSGTDFTLTISRLEPEDFAVYYCQSYGINIDVVFGGGTKVEIKRTVAAPSVFIFPPSDEQLKSGTASVVCLLNNFYPREAKVQWKVDNALQSGNSQESVTEQDSKDSTYSLSSTLTLSKADYEKHKVYACEVTHQGLSSPVTKSFNRGEC
notes: DVD-Ig: outer domain hBEW-9E10.1 (VEGF), inner domain CL-33675 (PDGF), linkers GS-H10 / GS-L10(dR), human IgG1 L234A, L235A, H435A, kappa; Lot 2213329; also called hu VEGF 9E10.1-GS-hu PDGF 33675 [hu IgG1/k]; LALA H435A
A word on the Kd: it is the concentration at which binding is half-saturated. One may read the koff as the first-order rate constant of dissociation. Lower therefore signals slow dissociation. In general, kon refers to a measure of how fast the partners come together. A high value points to faster complex formation. Regarding B3, the Kd in experiment [5] is not above 0.00081 nM; in experiment [6], not above 0.0052 nM; in experiment [7], 0.29 nM; in experiment [8], 0.065 nM; in [9], not above 0.0052 nM; in experiment [10], 0.23 nM. Moreover, the koff in experiment [5] came out at 8.1e-06 s⁻¹; in [6] it was 5.2e-05 s⁻¹; in experiment [7], 4.3e-05 s⁻¹; in [8], 3.4e-05 s⁻¹; in experiment [9], 5.2e-05 s⁻¹; in experiment [10], 4.1e-05 s⁻¹. Besides, the kon was not below 1e+07 M⁻¹ s⁻¹ in experiment [5]; not below 1e+07 M⁻¹ s⁻¹ in [6]; 150000 M⁻¹ s⁻¹ in experiment [7]; 520000 M⁻¹ s⁻¹ in experiment [8]; not below 1e+07 M⁻¹ s⁻¹ in [9]; 180000 M⁻¹ s⁻¹ in [10].
